Numbering of substitutions follows the chain as printed. In names and notes the source's numbering stands.
T1: GITR antigen (R&D systems, di-sulfide-linked homodimer; 689-GR) (human, UniProt Q9Y5U5 26-161)
T1 construct: Bought
T1 sequence: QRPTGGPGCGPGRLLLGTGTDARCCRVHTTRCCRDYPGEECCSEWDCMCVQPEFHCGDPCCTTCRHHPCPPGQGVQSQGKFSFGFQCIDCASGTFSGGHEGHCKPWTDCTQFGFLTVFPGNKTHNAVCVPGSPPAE

T2: human GITR D60A mutant on 1624-5 cells (human, UniProt Q9Y5U5 26-241)
T2 chain: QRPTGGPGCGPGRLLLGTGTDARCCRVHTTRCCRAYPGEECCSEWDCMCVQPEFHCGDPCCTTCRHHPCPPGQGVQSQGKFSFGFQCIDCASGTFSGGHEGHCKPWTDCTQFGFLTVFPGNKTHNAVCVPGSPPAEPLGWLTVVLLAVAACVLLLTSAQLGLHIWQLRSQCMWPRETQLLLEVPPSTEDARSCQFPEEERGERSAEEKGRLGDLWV

T3: human GITR G63A mutant on 1624-5 cells (human, UniProt Q9Y5U5 26-241)
T3 chain: T2 chain with A35D, G38A

T4: V1M cynomolgus GITR on 1624-5 cells (cynomolgus monkey, UniProt Q9Y5U5 26-241 (human entry))
T4 chain: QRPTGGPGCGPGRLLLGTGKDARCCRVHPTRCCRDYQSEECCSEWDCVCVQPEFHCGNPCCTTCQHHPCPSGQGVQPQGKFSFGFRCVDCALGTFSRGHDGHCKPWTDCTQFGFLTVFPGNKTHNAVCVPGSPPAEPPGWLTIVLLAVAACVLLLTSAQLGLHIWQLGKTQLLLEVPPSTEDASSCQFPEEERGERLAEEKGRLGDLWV

T5: V1M/Q62P/S63G cynomolgus GITR on 1624-5 cells (cynomolgus monkey, UniProt Q9Y5U5 26-241 (human entry))
T5 construct: also called mutant cynomolgus GITR V1M/Q62P/S63G
T5 chain: T4 chain with Q37P, S38G

B1: chimeric parental 231-32-15 antibody (antibody, human IgG1, V domains shown)
VH: QVQLLQSGTELVRPGVSVKISCKGSGYTFTDYAMYWVKQSHAKSLEWIGVIRTYSGDVTYNQKFKDKATMTVDKSSSIAYMELARLSSEDSAIYYCAKSGTVRGFAYWGQGTLVTVSS
VL: DIVMTQSPSSLTVTAGEKVIMSCKSSQSLLNSGNQKNYLTWYQQKPGQPPKLLIYWASTRESGVPDRFTGSGSGTDFTLTISSVQAEDLAVYHCQNDYSYPYTFGGGTKLEIK
notes: Murine variable regions on human IgG1 (CH1-2-3) and human kappa constant regions; T109S (Kabat) in the light chain constant domain
B2: Hum231#2 (antibody, human IgG1, V domains shown)
VH: QVQLVQSGAEVKKPGASVKVSCKGSGYTFTDYAMYWVRQAPGQGLEWIGVIRTYSGDVTYNQKFKDRATMTVDKSISTAYMELSRLRSDDTAVYYCAKSGTVRGFAYWGQGTLVTVSS
VL: DIVMTQSPDSLAVSLGERATINCKSSQSLLNSGNQKNYLTWYQQKPGQPPKLLIYWASTRESGVPDRFSGSGSGTDFTLTISSLQAEDVAVYHCQNDYSYPYTFGQGTKLEIKR
notes: Human IgG1 with T109S (Kabat) in the light chain constant domain; also called humanized variant Hum231#2 (IGHV1-2*02 and IGK4-1*01)
B3: m6C8 (antibody, human IgG1, V domains shown)
VH: QVTLKESGPGILKPSQTLSLTCSFSGFSLSTSGMGVGWIRQPSGKGLEWLAHIWWDDDKYYNPSLKSQLTISKDTSRNQVFLKITSVDTADAATYYCARTRRYFPFAYWGQGTLVTVSS
VL: DIVMTQSQKFMSTSVGDRVSVTCKASQNVGTNVAWYQQKPGQSPKALIYSASYRYSGVPDRFTGSGSGTDFTLTINNVHSEDLAEYFCQQYNTDPLTFGAGTKLEIKR
notes: also called murine antibody 6C8

Assays:
[1] = target: purified recombinant human GITR protein (Example 1) (human) (UniProt Q9Y5U5); assay: SPR (BIAcore), huGITR immobilized on CM5, analyte 12.5-200 nM
[2] = target: T1, GITR antigen (R&D systems, …); assay: SPR (BIAcore T100/T200), antibody captured via anti-human Fab, GITR antigen 40/10/2.5 nM, 1:1 model
Method: All interactions were analyzed at 25° C. using 1× DPBS (PAA, H15-002) plus P20 (0.05%, Pierce, 28320) as running buffer. Anti-GITR antibodies (8 μg/ml in running buffer) were captured to the chip surface of a CM5 sensor chip (GE Healthcare, Series S CM5, BR-1005-30) via an immobilized anti-human Fab antibody (GE Healthcare, Fab Capture Kit, 28958325). To detect unspecific interactions of the GITR antigen, antibody capture was only performed in flow cell 2, whereas in flow cell 1 only the capturing antibody was immobilized. In addition, an unrelated antibody (anti-IL-1β; SK48E26; International Publication No. WO 95/001997) was used to assess specificity of GITR binding. After capture of the anti-GITR antibodies GITR antigen (R&D systems, di-sulfide-linked homodimer; 689-GR) was run through both flow cells in different amounts (40 nM, 10 nM and 2.5 nM) for each antibody. Also a blank curve (running buffer only) was included in each run. Association was run for 90 s and dissociation for 600 s with a flow rate of 10 μl/min. After each run a regeneration step was performed with 10 mM Glycine pH2.0 (GE Healthcare, BR-1003-55) for 60 s with 30 μl/min. Binding curves were evaluated using BIAcore® T200 evaluation software version 2.0.1 applying a Langmuir 1:1 model with global fit of Rmax.

[3] = target: T2, human GITR D60A mutant on 1624-5 cells; assay: flow cytometry on 1624-5 cells, 2 µg/ml, MFI ratio to polyclonal antibody
Method: (§1) An average MFI ratio (“AMFI ratio”) was calculated based on the individual MFI ratios for all the mutants. FIG. 34A is a table summarizing the binding of Hum231#2, three germline variants (pab1967, pab1975 and pab1979) and the reference antibody m6C8 to1624-5 cells expressing human GITR alanine mutants. An individual MFI ratio that is above 60% of the AMFI ratio is considered to indicate similar binding, after normalization, of that of the polyclonal antibody and is represented by “+” in FIG. 34A. An individual MFI ratio that is between 30% and 60% of the AMFI ratio is represented by “+/−” in FIG. 34A. An individual MFI ratio that is below 30% of the AMFI ratio is represented by “−” in FIG. 34A.
(§2) All the mean fluorescence intensity (MFI) values were calculated as the mean of two measurements. […] The percentage of binding of an antibody to the GITR alanine mutants relative to the wild type GITR was calculated by dividing a particular MFI ratio for the GITR alanine mutants by the corresponding MFI ratio for the wild type (e.g., dividing MFI ratio_{Hum231#2, D60A} by MFI ratio_{Hum231#2, WT}). The percentage of reduction in binding was determined by calculating, e.g., 100%*(1−(MFI ratio_{Hum231#2, D60A}/MFI ratio_{Hum231#2, WT})).

[4] = target: T3, human GITR G63A mutant on 1624-5 cells; assay: as above
Method: as §1, §2

[5] = target: T4, V1M cynomolgus GITR on 1624-5 cells; assay: flow cytometry on 1624-5 cells
[6] = target: T5, V1M/Q62P/S63G cynomolgus GITR on 1624-5 …; assay: flow cytometry on 1624-5 cells, 2 µg/ml

| Molecule | Ka [1] [M⁻¹] | Kd [1] [nM] | Kd [2] [nM] | koff [2] [s⁻¹] | kon [2] [M⁻¹ s⁻¹] | percent reduction in binding relative to wild type human GITR [3] [%] | percent reduction in binding relative to wild type human GITR [4] [%] | binding result [5] | binding result [6] | percent increase in binding relative to wild type human GITR [4] [%] |
| --- | --- | --- | --- | --- | --- | --- | --- | --- | --- | --- |
| human GITR-L (Example 1, BIAcore analyte) (from UniProt Q9UNG2 49-177) (ligand) | 1.81e+08 | 5.54 | – | – | – | – | – | – | – | – |
| B1 | – | – | 2.02 | 0.000712 | 352000 | 82 | 37 | no binding (tested: 2 µg/ml) | binds | – |
| B2 | – | – | 0.629 | 0.00178 | 2.83e+06 | 88 | 59 | no binding (tested: 2 µg/ml) | binds | – |
| B3 | – | – | – | – | – | 10 | – | – | – | 62 |
